Data published in patent US6468567B1, “Malt beverage having stabilized flavor and methods of production thereof” (Cerveceria Polar, C.A., priority 1997, dated 2002).

Assays:
[1] = Substrate specificity assays of the purified reductase enzymes; format: biochemical; settings: FIG. 10
Experimental: The activities of the isolated and purified oxoaldehyde reductase enzymes were determined in a mixture containing 9 mM methylglyoxal, 0.1 mM NADPH, 25 mM potassium phosphate buffer (pH 7.0), and the fraction enzyme (8 μg approximately) in a total volume of 0.5 ml. The reaction was monitored at 340 nm. All assays were performed at 25° C. One unit of the enzyme was defined as the amount of enzyme that the catalyzes the oxidation of 1 μmol of NADPH per minute at 25° C.
Various carbonyl compounds were assayed as substrates for the isolated and purified reductase enzymes.

[2] = Effect of the reductases on the LC18 peak in fresh beer (HPLC); format: biochemical; settings: 50 units/ml enzyme, 25° C., 30 minutes, FIG. 11
Experimental: Analysis of the chemical indices LC18 and 5-HMF was performed by liquid chromatography, using a Waters HPLC system which consisted of a 600 pump, Wisp 717 autosampler, Millennium 2010 Chromatography Manager v 2.1. Separation was carried out in an Aminex HPX-87H column 300×7.8 mm, 9 μm held at 55° C. Elution was monitored with a Waters 991 Photodiode Array Detector (200 nm-300 nm) and the quantitation of 5-HMF and LC18 peak was carried out at 283 nm. For analysis, 50 μl of degassed beer was injected in duplicate samples and eluted with 0.05 M H2SO4 over 25 min at a flow rate of 1.0 ml/min. Quantitation of 5-HMF was performed using an external calibration curve of the respective pure compounds (Sigma; Saint Louis, Mo.).
In order to determine the effect of both reductases on the intensity of the LC18 peak, a 1 ml mixture of fresh beer, 25 mM potassium phosphate buffer (pH 7.0), 0.1 mM NADPH and the required volume of enzyme to obtain a final concentration in the solution of 50 units/ml of enzyme was incubated at 25° C. for 30 minutes. After the incubation, the treated beer was analyzed on an Aminex HPX-87H column connected to a Waters HPLC System under the conditions described above.

B1: Reductase 1: NADPH-dependent oxidoreductase purified from brewer's yeast; first 30 residues show 100% homology to Old Yellow Enzyme isozyme OYE2 (protein, UniProt Q03558 2-400, looked up)
NADPH dehydrogenase 2: PFVKDFKPQALGDTNLFKPIKIGNNELLHRAVIPPLTRMRAQHPGNIPNRDWAVEYYAQRAQRPGTLIITEGTFPSPQSGGYDNAPGIWSEEQIKEWTKIFKAIHENKSFAWVQLWVLGWAAFPDTLARDGLRYDSASDNVYMNAEQEEKAKKANNPQHSITKDEIKQYVKEYVQAAKNSIAAGADGVEIHSANGYLLNQFLDPHSNNRTDEYGGSIENRARFTLEVVDAVVDAIGPEKVGLRLSPYGVFNSMSGGAETGIVAQYAYVLGELERRAKAGKRLAFVHLVEPRVTNPFLTEGEGEYNGGSNKFAYSIWKGPIIRAGNFALHPEVVREEVKDPRTLIGYGRFFISNPDLVDRLEKGLPLNKYDRDTFYKMSAEGYIDYPTYEEALKLGWDKN
activity on pyruvate [1]: neither enzyme showed any appreciable activity | effect on the assayed aldoses (glucose, galactose and xylose) [1]: little or no effect | metyrapone as substrate [1]: acceptable substrate | activity on compounds with a single keto or aldo group such as acetaldehyde and pyridine-3-aldehyde ([1]; comparison of Reductase 1 with Reductase 2): higher activity than Reductase 2 | activity on 2-oxoaldehydes such as methylglyoxal and 3-deoxyglucosone ([1]; substrates methylglyoxal, 3-deoxyglucosone): acted on | change in the area of the LC18 peak ([2]; 0.1 mM NADPH, relative to untreated control beer): significant decrease | decrease in the LC18 peak compared with Reductase 2 [2]: larger decrease
